Test results published in patent US20150056223A1, “PHARMACEUTICAL COMPOSITION FOR THE PREVENTION OR TREATMENT OF NON-ALCOHOLIC FATTY LIVER DISEASE” (HANMI SCIENCE CO., LTD, priority 2012, published 2015).

Biological target: GLP-1 receptor of RIN-m5F rat insulinoma cells (rat) (UniProt P32301)

Row | Substance | In-vitro titer (%) (EC50 of cAMP in RIN-m5F cells, compared)
1 | Exendin-4(Lys27)-PEG-Fc | 6.3
2 | Exendin-4(N)-PEG-Fc | < 0.2
